This note sets out measurements from article doi:10.1101/2021.12.23.474050.

As usually defined, the Kd is the free concentration of one partner at which half of the binding sites on the other are occupied at equilibrium, for simple one-to-one binding. A lower Kd goes with higher affinity.

This assay has as its target wild-type (WT) RBD of the SARS-CoV-2 spike protein (SARS-CoV-2) (UniProt P0DTC2). The assay can be described thus: ITC.

CC12.1 ScFv returned a Kd of 23.9 nM.
